Experimental data published in US7972771B2, “Human brain carboxypeptidase B” (priority 1999, dated 2011).

How the values were obtained:
[1] = molecular target: T1, 40 kDa protease (Homo sapiens, UniProt Q96IY4, A169T/A260V/E345D/I347T/R257S); experiment: Inhibition of natural brain APP degradation by the 40 kDa protease (Western blot, anti Aβ 1/14 or anti APP-CT antibody); format: biochemical; settings: 37° C., 3 h
T1 construct: The 40 kDa proteolytic activity from fraction 19 was trapped in the column and recovered by elution; from tissue; host or cells: human hippocampus (autopsy brain)
T1 sequence (Q96IY4 23-360 isoform Q96IY4-2 A169T/R220S/A223V/E308D/I310T limits assumed): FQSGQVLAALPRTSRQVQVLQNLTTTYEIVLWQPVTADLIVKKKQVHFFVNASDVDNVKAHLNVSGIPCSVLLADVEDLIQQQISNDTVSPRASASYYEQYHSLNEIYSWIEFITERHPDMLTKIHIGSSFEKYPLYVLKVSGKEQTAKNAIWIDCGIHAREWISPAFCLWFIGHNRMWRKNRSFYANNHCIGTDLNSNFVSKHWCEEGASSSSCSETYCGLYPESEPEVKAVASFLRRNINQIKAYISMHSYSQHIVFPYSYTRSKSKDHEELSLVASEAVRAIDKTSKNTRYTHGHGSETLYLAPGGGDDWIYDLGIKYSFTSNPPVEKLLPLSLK
Experimental: After separation of proteins by SDS-PAGE, proteins on the gel was blotted onto a Hybond C nitrocellulose membrane (Amersham Pharmacia, UK), after which non-specific binding was blocked by immersing the membrane in 5% bovine serum albumin for 1 h in Tris-buffered saline: 100 mM Tris-HCl (pH 7.5), 140 mM NaCl and 0.1% Tween 20. The membrane next was washed for 45 min with three changes of the above buffer then incubated at 4° C. for 16 h with the first antibody (anti Aβ 1/14 antibody) appropriately diluted with Tris-buffered saline. After again washing it as above, the membrane was incubated at room temperature for 1 h with a horseradish peroxidase-labeled anti rabbit second antibody diluted 1:2000. After the washing, signals were detected on X-ray film using an ECL chemiluminescence detection system (Amersham Pharmacia, UK).

[2] = tested on: natural brain APP; experiment: Proteolysis of natural brain APP by the isolated 40 kDa protease (Western blot); format: biochemical, human; settings: 0.1 pmol APP, 0.005 to 0.1 pmol protease, 37° C., 3 h, 1 mM Zn2+; generates 5.5 kDa fragment
Experimental: In the proteolytic analysis of the fractions for natural brain APP, approximately 0.1 pmol of natural brain APP prepared from human hippocampus was incubated at 37° C. for 3 h with each fraction (approximately 0.05 pmol) in the presence of 1 mM Zn^2+. To obtain proteolytic activities of interest, each reaction mixture was loaded in parallel wells for SDS-PAGE then subjected to Western blot analysis using anti Aβ 1/14 antibody (Calbiochem) as follows.
After separation of proteins by SDS-PAGE, proteins on the gel was blotted onto a Hybond C nitrocellulose membrane (Amersham Pharmacia, UK), after which non-specific binding was blocked by immersing the membrane in 5% bovine serum albumin for 1 h in Tris-buffered saline: 100 mM Tris-HCl (pH 7.5), 140 mM NaCl and 0.1% Tween 20. The membrane next was washed for 45 min with three changes of the above buffer then incubated at 4° C. for 16 h with the first antibody (anti Aβ 1/14 antibody) appropriately diluted with Tris-buffered saline. […] After the washing, signals were detected on X-ray film using an ECL chemiluminescence detection system (Amersham Pharmacia, UK).
The brain APP substrate (approximately 0.1 pmol) was treated with the 40 kDa protease (0.005 to 0.1 pmol) at 37° C. for 3 h in the presence of 1 mM Zn^2+ to analyze the isolated 40 kDa protease. The reaction product analyzed by Western blotting with anti Aβ 1/14 antibody (FIG. 2). […]

[3] = tested on: synthetic Aβ 1-40; experiment: Carboxypeptidase digestion of synthetic Aβ 1-40 (Western blot); format: biochemical; settings: 0.01 pM to 0.2 pM enzyme, 0.1 pM substrate, 37° C., 16 hours
Text: (§1) In Western blot analysis, low-molecular weight peptides (in which several amino acids have shifted) can be confirmed by anti-Aβ-N-terminus antibody regarding the Aβ 1-40 substrate, however this cannot be confirmed by the anti-Aβ 40 fragment antibody. On the other hand, low-molecular weight peptides (in which several amino acids have shifted) can be confirmed by anti-Aβ-N-terminus antibody regarding the Aβ 1-42 substrate, however this cannot be confirmed by the anti-Aβ 42 fragment antibody.

[4] = tested on: synthetic Aβ 1-42; experiment: Carboxypeptidase digestion of synthetic Aβ 1-42 (Western blot); format: biochemical; settings: 0.01 pM to 0.2 pM enzyme, 0.1 pM substrate, 37° C., 16 hours
Text: as §1

[5] = Stability of proteolytic activity of native-PAGE fraction; format: physicochemical
Text: Of the 61 fractions analyzed, fraction 19 with a molecular mass of about 40 kDa and fraction 11 with a molecular mass of about 30 kDa had similar proteolytic activities. […] Fraction 19 with the 40 kDa molecular mass with proteolytic activity therefore was further purified.

## chondroitinase ABC
[1]; APP pretreated with 0.5 pmol chondroitinase ABC, FIG. 2 lane 3
  inhibition of brain APP degradation reaction: almost completely inhibited

## potato carboxypeptidase inhibitor: potato carboxypeptidase inhibitor (BioPur, Switzerland) (QQHADPICNKPCKTHDDCSGAWFCQACWNSARTCGPYVG)
[1]; 1 mM potato carboxypeptidase inhibitor, 1 mM Zn2+, FIG. 2 lane 4
  inhibition of brain APP degradation reaction: completely inhibited

B1: 40 kDa protein: 40 kDa protease purified from human hippocampal homogenate; brain carboxypeptidase B (SEQ ID NO: 2) (protein, listed as Homo sapiens)
chain: MKLCSLAVLVPIVLFCEQHVFAFQSGQVLAALPRTSRQVQVLQNLTTTYEIVLWQPVTADLIVKKKQVHFFVNASDVDNVKAHLNVSGIPCSVLLADVEDLIQQQISNDTVSPRASASYYEQYHSLNEIYSWIEFITERHPDMLTKIHIGSSFEKYPLYVLKVSGKEQTAKNAIWIDCGIHAREWISPAFCLWFIGHNRMWRKNRSFYANNHCIGTDLNSNFVSKHWCEEGASSSSCSETYCGLYPESEPEVKAVASFLRRNINQIKAYISMHSYSQHIVFPYSYTRSKSKDHEELSLVASEAVRAIDKTSKNTRYTHGHGSETLYLAPGGGDDWIYDLGIKYSFTSNPPVEKLLPLSLK
[2]
  degradation of natural brain APP: degraded natural brain APP
[3]
  formation of low-molecular weight peptides from Aβ 1-40: low-molecular weight peptides formed in a dose-dependent manner
[4]
  formation of low-molecular weight peptides from Aβ 1-42: low-molecular weight peptides formed in a dose-dependent manner

B2: fraction 11: native-PAGE fraction of about 30 kDa with proteolytic activity; mature form of HBCPB (protein)
chain: ASASYYEQYHSLNEIYSWIEFITERHPDMLTKIHIGSSFEKYPLYVLKVSGKEQTAKNAIWIDCGIHAREWISPAFCLWFIGHNRMWRKNRSFYANNHCIGTDLNRNFASKHWCEEGASSSSCSETYCGLYPESEPEVKAVASFLRRNINQIKAYISMHSYSQHIVFPYSYTRSKSKDHEELSLVASEAVRAIEKTSKNTRYTHGHGSETLYLAPGGGDDWIYDLGIKYSFTSNPPVEKLLPLSLK
[5]; 2 w at −20° C.
  activity after long-term storage: lost its activity
[5]; room temperature
  time to loss of proteolytic activity: ≤ 30 min
